The text below walks through data of paper PMC3985747 (Biochemistry, 2014).

Data set [1] deals with the molecule itself. As to the kind of experiment: SEC. (SEC sorts molecules by how far they enter the pores of the column.)
Data set [2] concerns the molecule itself. As to the kind of experiment: crystal structure.

Numbering of substitutions follows the chain as printed. Names and notes keep the numbering of the source.

B1: ArnB (wild type) of Salmonella typhimurium (enzyme, S. typhimurium, UniProt Q8ZNF3 1-385, looked up)
chain: MAEGKMMSDFLPFSRPAMGAEELAAVKTVLDSGWITTGPKNQELEAAFCRLTGNQYAVAVSSATAGMHIALMALGIGEGDEVITPSMTWVSTLNMIVLLGANPVMVDVDRDTLMVTPEHIEAAITPQTKAIIPVHYAGAPADLDAIYALGERYGIPVIEDAAHATGTSYKGRHIGARGTAIFSFHAIKNITCAEGGIVVTDNPQFADKLRSLKFHGLGVDAWDRQSGGRAPQAEVLAPGYKYNLPDLNAAIALAQLQKLDALNARRAAIAAQYHQAMADLPFQPLSLPSWEHIHAWHLFIIRVDEARCGITRDALMASLKTKGIGTGLHFRAAHTQKYYRERFPTLTLPDTEWNSERICSLPLFPDMTESDFDRVITALHQIAGQ
For B1, in data set [1], the stoichiometry N (as a rule, a count of units in the complex or per binding partner) was found to be 2.

B2: ArnB K188A mutant of Salmonella typhimurium (enzyme, S. typhimurium, UniProt Q8ZNF3 1-385, looked up)
chain: B1 chain with K188A
Consider B2, for which the binding result in data set [2] is listed as “binds”.
